{
  "source": "patent US20220213203A1",
  "about": "(MacroGenics, published 2022)",
  "key": {"[1]": {"molecular_target": "CD123 as arrayed by human cells (human, UniProt P26951 19-378)", "sequence (P26951 19-378)": "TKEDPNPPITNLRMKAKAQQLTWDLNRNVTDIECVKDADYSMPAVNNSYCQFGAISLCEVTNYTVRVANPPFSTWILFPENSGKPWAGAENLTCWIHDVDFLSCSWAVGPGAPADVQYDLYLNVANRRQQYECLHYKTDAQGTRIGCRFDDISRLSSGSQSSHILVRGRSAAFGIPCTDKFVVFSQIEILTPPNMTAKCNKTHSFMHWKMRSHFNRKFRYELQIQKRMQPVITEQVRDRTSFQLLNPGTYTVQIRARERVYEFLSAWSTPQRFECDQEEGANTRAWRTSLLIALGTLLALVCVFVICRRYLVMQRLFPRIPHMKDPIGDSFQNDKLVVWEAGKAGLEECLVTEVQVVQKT", "assay": "cell-based or functional assay"}, "[2]": {"molecular_target": "Cynomolgus CD3ε/δ (cynomolgus monkey) (UniProt Q95LI5)", "sequence (Q95LI5 22-117, stated change not applied, chain 1 of 2)": "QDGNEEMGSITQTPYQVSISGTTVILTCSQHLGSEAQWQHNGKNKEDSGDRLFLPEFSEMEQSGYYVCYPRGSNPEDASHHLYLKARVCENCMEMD", "sequence (Q95LI8 22-105, stated change not applied, chain 2 of 2, further chain)": "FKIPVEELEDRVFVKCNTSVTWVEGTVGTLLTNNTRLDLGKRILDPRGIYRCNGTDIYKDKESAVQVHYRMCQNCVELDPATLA", "assay": "kinetic binding analysis; method not given"}, "Human CD3ε/δ (human)": {"molecular_target": "Human CD3ε/δ (human) (UniProt P07766)", "sequence (P07766 23-126, stated change not applied, chain 1 of 2)": "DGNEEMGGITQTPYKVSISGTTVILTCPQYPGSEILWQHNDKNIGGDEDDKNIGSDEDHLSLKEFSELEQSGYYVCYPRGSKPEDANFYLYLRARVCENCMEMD", "sequence (P04234 22-105, stated change not applied, chain 2 of 2, further chain)": "as the sequence (Q95LI8 22-105, stated change not applied, chain 2 of 2, further chain) above, with V5I, K15N, V20I, T32S, N33D, N34I, A64T, N74S, L83V counted along it", "assay": "kinetic binding analysis; method not given"}},
  "data": [
    {"binder": "DART-A (bispecific antibody) chain 1: QAVVTQEPSLTVSPGGTVTLTCRSSTGAVTTSNYANWVQQKPGQAPRGLIGGTNKRAPWTPARFSGSLLGGKAALTITGAQAEDEADYYCALWYSNLWVFGGGTKLTVLGGGGSGGGGEVQLVQSGAELKKPGASVKVSCKASGYTFTDYYMKWVRQAPGQGLEWIGDIIPSNGATFYNQKFKGRVTITVDKSTSTAYMELSSLRSEDTAVYYCARSHLLRASWFAYWGQGTLVTVSSGGCGGGEVAALEKEVAALEKEVAALEKEVAALEK chain 2: DFVMTQSPDSLAVSLGERVTMSCKSSQSLLNSGNQKNYLTWYQQKPGQPPKLLIYWASTRESGVPDRFSGSGSGTDFTLTISSLQAEDVAVYYCQNDYSYPYTFGQGTKLEIKGGGSGGGGEVQLVESGGGLVQPGGSLRLSCAASGFTFSTYAMNWVRQAPGKGLEWVGRIRSKYNNYATYYADSVKDRFTISRDDSKNSLYLQMNSLKTEDTAVYYCVRHGNFGNSYVSWFAYWGQGTLVTVSSGGCGGGKVAALKEKVAALKEKVAALKEKVAALKE", "values": [
      {"measurement": "EC50 of redirected killing, Kasumi-3 target cells, E:T = 10:1", "setting": "[1]", "result": 0.01, "unit": "ng/mL"},
      {"measurement": "EC50 of redirected killing, Molm13 target cells, E:T = 10:1", "setting": "[1]", "result": 0.18, "unit": "ng/mL"},
      {"measurement": "EC50 of redirected killing, RS4-11 target cells, E:T = 10:1", "setting": "[1]", "result": 0.5, "unit": "ng/mL"},
      {"measurement": "EC50 of redirected killing, TF-1 target cells, E:T = 10:1", "setting": "[1]", "result": 0.46, "unit": "ng/mL"},
      {"measurement": "EC50 of redirected killing, THP-1 target cells, E:T = 10:1", "setting": "[1]", "result": 0.24, "unit": "ng/mL"},
      {"measurement": "Kd", "setting": "[2]", "result": 9.2, "unit": "nM"},
      {"measurement": "koff", "setting": "[2]", "result": 0.005, "unit": "s⁻¹"},
      {"measurement": "kon", "setting": "[2]", "result": 550000, "unit": "M⁻¹ s⁻¹"},
      {"measurement": "Kd", "setting": "Human CD3ε/δ (human)", "result": 9, "unit": "nM"},
      {"measurement": "koff", "setting": "Human CD3ε/δ (human)", "result": 0.005, "unit": "s⁻¹"},
      {"measurement": "kon", "setting": "Human CD3ε/δ (human)", "result": 570000, "unit": "M⁻¹ s⁻¹"}
    ]}
  ]
}
